Data: the DeepSol protein solubility set

assay: soluble on expression in E. coli; label from the status in PepcDB or PDB records

Soluble on expression in E. coli, not soluble:
MGSDKIHHHHHHSDFLNLTPYSEITAENFYQNEEDFRQAVNGAYEPLRNMYNTEEWNLGEAKSDNTTYIIHIAKSSLDGEDPDQFLETSTNGNVGTKYNNCYVIIGRCNRIISEIDQADFDAEAKSNLKGQALFLRAFCYFNLVQYFGGVPLHTTPSTVYEEAFKPRASVDEVYEQIMKDAQEASDLLPVKSRQEVGRVSKGSAQTLLGNVYMVLKRWAEAEQTLKEVVSSGEYELLADYGSIYSISNKNHKESIFEIQYMQDASLGQQSDFIYRFLPYMTNPSAITGTTPNPCPSNVDHGGFNTPTIDLINAYEKGDKRLDASIGMVEGKLTDSYALDATGVKSIVDYEPAPGITAYPFIKKYFHEHIKPYYTDDNWPVYRYAEVLLFLAEAINEQNRPDEAIHYLNDTFGQASIRGRAGLAPVKSQNVDALREAIYQERRIELAFENKRWTDLLRTGRAVEVMTRHGQKIKANPESYYWPDGVQPVANAYLFNPDKCLLPIPLREIDLNSELKQNPGY, MGSDKIHHHHHHSVQSIINNPAVDPHDYEPTTKVGKSVASADLVVASGIGYDGWMDKVVKSADKSKNYLRVADDLMNKKEGDNEHIWYDPRTMSKLANTLADKFAKKDPADKATFKANAKKYIASLDNLNTLINKLKSKVNGQLVDVSEPVFGYALDYLGYKVNDDHFSKSTEDGTDYSAKDIHGIETDIKEKKIAFFVNNIQASSKTVNQLVKLAEQNNVPVLKVTETLPKGKNYRTWMTSQYQQLEKIQDQATNSAK, MGSDKIHHHHHHTEDKDWSGGLKNSDLVFQTYLPTEGAKGTELSIRGNNFGEDISQVQVWVNEKEAEVISVTSTRIMARVAEASGSGVVKVRVGEVVYSYPDLFSYGYIRNVYTVAGNGQGTTVDGAYLQASVQWPIVMVYDKWDDAILFLQDEGEHRIRRMKDGKIETLCSTKSLVNNARSICFSLDGDTLFIGNDNANNYVANPVAVGMVTRKGGFKDLKSYIPSEKLAQPHINGIAVNPVDGSLFTYHWGRHVFRYNKATETCEYVITRDQFNELVVGLFPDADGNMQNIGGDGGYGGLAFSPDGKTLYWNGRDPYQGILKADYDLVTKKCTNLTRFAGNGVWGIIDGQGVSSRMDQPNQIAVDAEGNLLVTTVYGRTVRKITPEGYVSTYAGIGYQTGYVDGLAAEAKFNKPYGIAIDAQGNVYVGDCENWRIRVIKEE, MGSDKIHHHHHHVALAIPQIHAHEHSDEQLMQRYAQGDSQAFEQLYLKHKGALYRYFVRQLGDKQLAEDLYQETWGRVIRAAVNYQVSAKFSTWLYRIAHNLLIDHVRAVKPVDFIASDTDVTGLDTFEGCDQDKPDIHWQEAQKSLLLKTCISLLPQVQKEAFILNIEMGFTAAMISDIAGVTLEATKSRIRYAYQSLKECVNAKWQEAGHE, MGSDKIHHHHHHVDKFLYIAMSGAKQNLNSLSIRANNLANANTDGFKADLEQSRSMQAFGEGLPTRVFAMTENPQASFRHGPINSTARDLDVAVKGDGWIAVEDADGNEAYTRAGSLKFDETGLLTNSQGRPVMGDAGPIVLPLPIDKVEIAQDGTITVRPQGATAEVVEEVARIKLVNPGNQNLMRGDDGLFRMMNGTTAPQDETVALESRAVEGSNVNPVEEMVALIDIQRQFELQVKMMKTAEENDKASAQLVRIG, MGSDKIHHHHHHVDPVVLLTSVSALTQTQKPCRGRRNARDRIPTCSQETLEGKALALRVAVVGGGPAGSCAAETLVKAGIETYLIERKLDNAKPCGGAIPLCMVSEFDLPAEIIDRRVRNMKMISPSNREVNINLDNADEYIGMTRREVLDGFLRDRAAKLGTKLINGTLFRLELPKGDRDPYVLHYADHSNGSLEGIPSTLEVDVVIGADGANSRIAKAIDAGDYNYAIAFQERIRLPEDKMHYYENLAEMYVGGDVSPDFYAWVFPKYDHVAVGTGTMHVNQRLIKKLQAGIRARAANRLEGGKIIKVEAHPIPEHPRPRRVVGRAALVGDAAGYVTKSSGEGIYFAAKSGRMCAETIVETSNNGARIPTEADLKQYLRRWDKKYGTTYKVLDLLQTVFYRSDATREAFVEMCDDKDVQRLTFDSYLYKTVVPANPLVQLKITAKTLGSLLRGNALAPAEYKPIDAA, MGSDKIHHHHHHVGALLSKITATDLASTLTGDPEALHVHLTLVARDVSIKGHTVKIHCHCLTVDGNGRVQPHRLAEFMRNAVVDYAIPRSKVADAKARDLKYNSTEATTELVERAKRSFTDLANTGEGGEMLLFLLAERFLKLPQILCKMDLKTDTRMHYHGADGVYAGVTPSGTLKLYWGESKIYKKVGDAIRDCLASLAPFLIEPEHEDAERERDLILLSDKADLTNSELTGALKRYFDRSSEMSTRVQYCGVALVGFDAPFYPASDVKVLADQIVDGSRRALSDWSDKIGARLAAEKLSDMEIQLFCIPLPSADGFRAAFLKAMGIKGG, MGSDKIHHHHHHVGEHGNVNLRAENCRLKGKDIIVLYRDELDLSSEQWLELLQDNTVFKDEDILLVLELYKCNNCREYASVLADSLGVASHSVLNLQIGRLGKRIIARYPDIKYPTREDGVVRYWHIPFWGEDGEKKGHYYWQLRPELKEALKMLKSNQKRKIFALHGEVQLAQEVDEEQTEKLYEGAKIQIVVNAYERNIKARQICIDKYGYKCSICDFDFEEFYGMLGSDYIEVHHLIPLHEINKEYRVDPINDLRPVCPNCHAMLHRAGISYEELKNKIESEC, MGSDKIHHHHHHVIRRAKPLLGTLVEIAAESLPHSGSEIPLEDKALEAAMTAAFSRVTHIGRLLSFHQQDSELNQLNRQPGTWIRVSQDSLRVLKLAKWLGKASNNLFNCTVGGEMMSRGALPAYLGMPLLLQGEWQDIEIKDNQVRLARPLILTLDGIAKGYAVDMAVSELRRAGVGGGWVNAGGDLRVFGSASLNVLCRGPKGLSQKICVSNMALASSRVSQTLSHDYPALLLPTGNVTDVNIDLESERIVSVSAPFAWRADALTKVAGYLSSDSAADKIAHLGGRLVSFE, MGSDKIHHHHHHVKDGFDLVDTGDPFDTITPVIPISDRPRSQSVVAGTLNDPYRRQAVADARSLWRKSIPGSRGVVAAYLASQGIQLDEIPANLRFVLDHPYMKKSGGLYHELHRGPCVLGGIFSEAGQLLGVNQIWVDPKPPHGRASIQMDGDHMPAEIVRGSCKGGFLPLVWPEAATALVVARSLEAALRAYASRPSGLEDAAYWAVVDLKVMSGKMQRQKGVRYSGLPDLSDDTSFVAPHWVKRLVFLQEDDRTGTRQKLESGLKRSMHVRPGLRASIVRIGSAAKGGV, MGSDKIHHHHHHVKSDYYKEPIVINTDALIPPSPSDDMWKNRKRAYYMYDAPDVPTCSIVVTGYNRLHKTKYCVECILKYTRDVDYELILVDNGSDDGTLDFFQSVPYENKTIIRMTQNKGATLPFKYYINILKGKYIVNISNDIYVTQNWLSNLLKCYQSDPKIGFVEPVSSNVSNLQEVDLGFSDFDDMQKKAAAFNQSDPAKWEERLRLISVINVFLRDVLDNVGINDAAYFYDFIEDDLCARIRRMGYKLVLCRDTWICHDHDFRNLEDKDPVAFQASLEHGRAVYRKKYYGIDPWDDINNFELTLLAQLDTAKIPRAVKALTVDVRCGAPALEIRNRLKRRGITDVASYAFTTAAKYYLDLQTVCSEVQCDRIDFIQQHYANGTFDLVVLGEPVNTYPLPVRLLQNLYDFLKPGGLLLFKVRNTDDYRAFLRSIGMEVASDPDLPASTPLNEVLACLKLFGAVDCTVAGELESISVADQEFLMNKLKAANPNADQATLNRLCIKDYCIKVIRK, MGSDKIHHHHHHVLETFETVAKAVADPNRVRILKLLESGELCVCQITAVLDLAAATVSKHLSLLKAAGLLQQRREGKWAYYRLADRALNPYAPAFLGLIGATLADDPTLTEDARILSKVNALPLQVLCDQGRAALDLTRPTSPAPSCCGTPMMTETSFNVLFLCTGNSARSILAESILNREGAGKFRAYSAGSHPKGQIDPTVLALLKKTNHPTETLRSKSWDEFAAPGAPTLDFVFTVCDNAAGEVCPIWPGQPMTAHWGVPDPAGFVGSEAEKAAFCGEVMRLLRTRISIFAALPIASLDRLSLQRRLKEIGKVALESRETRESGVL
